Experimental data from patent US7657380.
pIC50, pKd: −log10 of the molar value.

Experiments:
[1] = target: GST-fused human V158 FcγRIIIa (extracellular region) (human) (UniProt P08637); experiment: SPR, GST-FcγRIIIa V158 on chip
[2] = target: GST-fused human V158 FcγRIIIa (extracellular region) (human) (UniProt P08637); experiment: AlphaScreen competition vs biotin-WT AC10

GST-fused human V158 FcγRIIIa (extracellular region) (human), sequence (P08637 17-208 F176V): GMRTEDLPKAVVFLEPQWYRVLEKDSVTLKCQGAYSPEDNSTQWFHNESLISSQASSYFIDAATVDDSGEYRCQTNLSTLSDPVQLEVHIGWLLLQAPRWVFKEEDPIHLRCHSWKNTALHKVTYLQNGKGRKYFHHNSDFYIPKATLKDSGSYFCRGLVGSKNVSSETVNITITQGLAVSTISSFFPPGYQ

In the case of AC10 WT (H0/L0) full length antibody, the pKd [1] was 7.73 and the pIC50 [2] was 7.06.
